# Assays:
# Assay in all cases: pull-down binding Z-score (relative to library population); higher = stronger binding
# Details in all cases: RNA library: Library-2
# [1] = test system: TO-N3-2 (biotin conjugate)
# Procedure, shortened: (§1)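 Heat-folded RNA library (1 μg, Cy5 or Cy3 end label, phosphate/NaCl/KCl buffer) was captured for 60 min at 25 °C on streptavidin beads displaying 100 pmol of biotin-conjugated small molecule, then washed three times. The bound fraction, eluted in hot SDS, was hybridised to a DNA barcode microarray at 55.5 °C for 20 h. Z-scores for binding were taken against the library mean and standard deviation after beads-only subtraction and trimmed averaging of replicate barcoded probes.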
# TO-N3 (biotin conjugate) = test system: TO-N3 (biotin conjugate)
# Procedure, shortened: as §1
# [2] = test system: TO-3-N3 (biotin conjugate)
# Procedure, shortened: as §1
# [3] = test system: TO-3-N3-2 (biotin conjugate)
# Procedure, shortened: as §1
Sequence,pull-down binding Z-score [1],pull-down binding Z-score (TO-N3 (biotin conjugate)),pull-down binding Z-score [2],pull-down binding Z-score [3]
CAGAGACUUGAAGAUGUCUUUG [IAV_invivo_M1_M2_7_Motif_2+IAV_invivo_M1_M2_7_Motif_2],-0.242,-0.897,-0.637,-0.362
CAGAGUACUCAAUGGUCUUUG,-0.606,-0.395,-0.33,-0.543
CAGAGUCACAUGUUGACACUG,-0.894,-0.0159,0.214,-0.263
CAGAGUCGUAUUUGUCUUAUGGGCACAUGGCUUUG [SHAPE_invivo_SARS-CoV-2_Motif_350],-0.215,0.131,0.361,-0.171
CAGCAAGAACUG [DMSMaPseq_invitro_SARS-CoV-2_Motif_202],-0.724,-0.633,-0.324,-0.578
CAGGACACGAGUAACUCGUCUAUCUUCUG [SARS-CoV-2-Conserved-Structured-36_Interval-120-237_Motif_2],0.379,0.324,0.225,-0.0048
CAGGCAAGAAGGAUACUUACCUG [U1snRNP5ss-25],-0.695,-0.353,-0.164,-0.366
CAGGCAAUAACAGUUACACCGGAAGCCAAUAUGGAUCAAGAAUCCUUUGGUGGUGCAUCGUGUUGUCUG [SHAPE_invivo_SARS-CoV-2_Motif_250],0.779,1.2,0.944,0.619
CAGGCCACAAAUAGGCGUG,0.278,-0.509,-0.638,-0.502
CAGGCCAUCACAAAUGCCACAGCUUGAGUAAACUGUGCAGCCUG [3-way model-2_DENV2],-0.0801,-0.464,-0.433,-0.224
CAGGUACAGUAGAUACUUACCUG [U1snRNP5ss-19],-1.09,-0.984,-0.605,-0.722
CAGGUAUGAAUGAUACUUACCUG [U1snRNP5ss-11],0.225,0.898,1.06,0.369
CAGGUGACUUUGAUACUUACCUG [U1snRNP5ss-18],-0.978,-0.974,-0.734,-0.615
CAGGUUUGUGAGAUACUUACCUG [U1snRNP5ss-14],-0.792,-0.661,-0.473,-0.404
CAGUACAAUUCUGUGAUGCCAUGCGAAAUGCUGGUAUUGUUGGUGUACUG,-0.171,-0.499,-0.432,-0.441
CAGUUGAAACAUCAAAUUCGUUUGAUGUACUG,-1.22,-1.04,-0.685,-0.516
CAGUUUACUCACACCUUUUGCUCGUUGCUGCUG,0.0199,-0.0216,-0.164,-0.285
CAGUUUGGUCCAACUUAUUUGGAUGGAGCUG,-0.976,-1,-0.686,-0.514
CAUAAACGAACUUAUGGAUUUGUUUAUG,-1.25,-0.904,-0.474,-0.393
CAUAGAUUAUGACUGUG [SHAPE_invivo_SARS-CoV-2_Motif_206],-0.826,-0.396,-0.165,-0.373
CAUCAAAACCAAGCAAGAGGUCAUUUAUUGAAGAUCUACUUUUCAACAAAGUGACACUUGCAGAUG [DMSMaPseq_invitro_SARS-CoV-2_Motif_426],-0.851,-0.92,-0.806,-0.0955
CAUCAACCAUAUGUAGUUGAUG,-1.15,-0.872,-0.47,-0.283
CAUCAUAUGCAGCUUUUGCUACUGCUCAAGAAGCUUAUGAGCAGGCUGUUGCUAAUGGUG,-0.238,-0.917,-1.04,-0.315
CAUCGUUGAUAGUG [SHAPE_invitro_SARS-CoV-2_Motif_152],0.588,0.76,0.718,0.263
CAUGAAGUGUGAUCAUUGUGGUGAAACUUCAUG,-0.279,-0.605,-0.496,-0.154
CAUGAGCAGUGCUGACUCAACUCAGGCCUAAACUCAUG,0.83,0.27,-0.197,0.0138

Sequence,pull-down binding Z-score [1],pull-down binding Z-score (TO-N3 (biotin conjugate)),pull-down binding Z-score [2],pull-down binding Z-score [3]
CAUGCAAAUUACAUAUUUUGGAGGAAUACAAAUCCAAUUCAGUUGUCUUCCUAUUCUUUAUUUGACAUG,-0.803,-1.08,-0.857,-0.152
CAUGCUGAUUUUGACACAUGGUUUAGCCAGCGUG [DMSMaPseq_invitro_SARS-CoV-2_Motif_160],-0.276,-0.64,-0.604,-0.409
CAUGGAUUUGUCUUCUACAAUUUGCCUAUG,-0.745,-0.967,-0.852,-0.186
CAUGUCAUGUCUAAACAUACUGACUUUUCAAGUG [SHAPE_invitro_SARS-CoV-2_Motif_169],-0.539,-0.41,-0.283,-0.276
CAUGUGAUCUGCACCUCUGAAGACAUG,0.33,0.248,0.111,0.185
CAUGUGGUAGUGUUGGUUUUAACAUAGAUUAUGACUGUGUCUCUUUUUGUUACAUGCACCAUAUG,-0.00779,1.48,1.54,0.0495
CAUGUGUUGGUAGCGAUAAUGUUACUGACUUUAAUG,-1.01,-0.995,-0.663,-0.614
CAUGUUUAUCACCCGCGAAGAAGCUAUAAGACAUGUACGUGCAUGGAUUGGCUUCGAUGUCGAGGGGUGUCAUG [DMSMaPseq_invitro_SARS-CoV-2_Motif_326],-0.0649,-0.771,-0.699,-0.363
CAUUACUUUAUGAUG [SHAPE_invitro_SARS-CoV-2_Motif_468],-1.02,-0.055,0.168,-0.259
CAUUUGUAGUUUCAACUGGAUACCACUUCAGAGAGCUAGGUGUUGUACAUAAUCAGGAUGUAAACUUACAUAGCUCUAGACUUAGUUUUAAGGAAUUACUUGUG,0.127,-0.109,-0.927,-0.292
CCAAGACAUGUGAUCUGCACCUCUGAAGACAUGCUUAACCCUAAUUAUGAAGAUUUACUCAUUCGUAAGUCUAAUCAUAAUUUCUUGG [DMSMaPseq_invitro_SARS-CoV-2_Multi_33_ComplexLevel_1],0.229,0.332,0.403,-0.101
CCAAGGAAAUUUUGG,-0.948,-0.373,-0.192,-0.382
CCACAUAGAUCAUCCAAAUCCUAAAGGAUUUUGUGACUUAAAAGG [SHAPE_invivo_SARS-CoV-2_Motif_251],-0.137,-0.169,-0.167,-0.357
CCACAUUUUCACCGAGGCCACGCGGAGUACGAUCGAGUGUACAGUGAACAAUGCUAGG,1.34,0.772,-0.147,0.563
CCACGCACAUUGCUAACUAAGGGCACACUAGAACCAGAAUAUUUCAAUUCAGUGUGUAGACUUAUGAAAACUAUAGGUCCAGACAUGUUCCUCGGAACUUGUCGG,0.139,-0.189,-0.478,-0.0669
CCACGCCAGGUAGUGG,-0.539,0.912,1.16,0.0319
CCACGCUCGUUCCGACACCGGAACGGCACUCGACACCGAGUGCAGCGUGG [3-way model-3_NoName],1.93,1.51,1.17,1.41
CCACUUGGCUAUGUAACACAUGGCUUAAAUUUGG [DMSMaPseq_invitro_SARS-CoV-2_Motif_85],-0.575,0.127,0.386,-0.0708
CCAGAGAAGAAACUGG,0.486,0.417,0.466,0.0828
CCAGUACCAGAGGUGAAAAUACUCAAUAAUUUGGGUGUGGACAUUGCUGCUAAUACUGUG,-0.0208,1.18,1.32,0.266
CCAGUAUCUGAAUUACUUACACCACUGG [SHAPE_invivo_SARS-CoV-2_Motif_58],-0.0924,0.688,0.91,0.119
CCAGUAUCUGAAUUACUUACACCACUGGGCAUUGAUUUAGAUGAGUGGAGUAUGGCUACAUACUACUUAUUUGAUGAGUCUGGUGAGUUUAAAUUGG,-0.946,-0.752,-0.742,-0.468
CCAGUAUGGUGG [IAV_invivo_PB1_2_Motif_36+IAV_invivo_PB1_2_Motif_36],-0.372,-0.423,-0.26,-0.471
CCAUAAUGAAUCUGG [DMSMaPseq_invitro_SARS-CoV-2_Motif_27],-0.529,-0.345,-0.322,-0.198
CCAUGGCAGAUUCCAACGGUACUAUUACCGUUGAAGAGCUUAAAAAGCUCCUUGAACAAUGGAACCUAGUAAUAGGUUUCCUAUUCCUUACAUGG [DMSMaPseq_invitro_SARS-CoV-2_Multi_81_ComplexLevel_1],-0.419,-0.621,-0.195,-0.516
CCAUGGGACAGGAACAGGAUACACCAUGG [IAV_invivo_PB1_2_Motif_4+IAV_invivo_PB1_2_Motif_4],0.927,-0.056,-0.411,0.154
